Data: US20230374148A1, “BINDING MOLECULES THAT MULTIMERISE CD45” (UCB BIOPHARMA SRL, priority 2020, published 2023)
Read-outs that look alike come from different tables or passages of the source.

T1: CD45 D1-D4 (Homo sapiens, UniProt P08575)
T1 construct: extracellular domain of CD45 (UniProtKB—P08575, residue positions 225-573); TEV cleavage site (C); 10-His tag (C); made in house; host or cells: HEK293
T1 sequence (P08575 225-573): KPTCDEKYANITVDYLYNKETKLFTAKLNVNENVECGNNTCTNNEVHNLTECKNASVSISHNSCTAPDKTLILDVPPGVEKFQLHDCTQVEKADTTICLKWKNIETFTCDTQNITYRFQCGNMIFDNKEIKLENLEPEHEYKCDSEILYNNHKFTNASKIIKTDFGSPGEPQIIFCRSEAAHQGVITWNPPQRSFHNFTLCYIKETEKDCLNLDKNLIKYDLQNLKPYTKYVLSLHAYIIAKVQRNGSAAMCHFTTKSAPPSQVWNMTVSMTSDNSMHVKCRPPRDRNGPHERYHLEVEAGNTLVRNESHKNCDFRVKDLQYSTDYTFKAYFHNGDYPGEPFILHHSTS

T2: human CD45 on cells (PBMC, whole blood cells, macrophages, leukaemia and lymphoma cell lines) (human, UniProt P08575 26-1306)
T2 sequence: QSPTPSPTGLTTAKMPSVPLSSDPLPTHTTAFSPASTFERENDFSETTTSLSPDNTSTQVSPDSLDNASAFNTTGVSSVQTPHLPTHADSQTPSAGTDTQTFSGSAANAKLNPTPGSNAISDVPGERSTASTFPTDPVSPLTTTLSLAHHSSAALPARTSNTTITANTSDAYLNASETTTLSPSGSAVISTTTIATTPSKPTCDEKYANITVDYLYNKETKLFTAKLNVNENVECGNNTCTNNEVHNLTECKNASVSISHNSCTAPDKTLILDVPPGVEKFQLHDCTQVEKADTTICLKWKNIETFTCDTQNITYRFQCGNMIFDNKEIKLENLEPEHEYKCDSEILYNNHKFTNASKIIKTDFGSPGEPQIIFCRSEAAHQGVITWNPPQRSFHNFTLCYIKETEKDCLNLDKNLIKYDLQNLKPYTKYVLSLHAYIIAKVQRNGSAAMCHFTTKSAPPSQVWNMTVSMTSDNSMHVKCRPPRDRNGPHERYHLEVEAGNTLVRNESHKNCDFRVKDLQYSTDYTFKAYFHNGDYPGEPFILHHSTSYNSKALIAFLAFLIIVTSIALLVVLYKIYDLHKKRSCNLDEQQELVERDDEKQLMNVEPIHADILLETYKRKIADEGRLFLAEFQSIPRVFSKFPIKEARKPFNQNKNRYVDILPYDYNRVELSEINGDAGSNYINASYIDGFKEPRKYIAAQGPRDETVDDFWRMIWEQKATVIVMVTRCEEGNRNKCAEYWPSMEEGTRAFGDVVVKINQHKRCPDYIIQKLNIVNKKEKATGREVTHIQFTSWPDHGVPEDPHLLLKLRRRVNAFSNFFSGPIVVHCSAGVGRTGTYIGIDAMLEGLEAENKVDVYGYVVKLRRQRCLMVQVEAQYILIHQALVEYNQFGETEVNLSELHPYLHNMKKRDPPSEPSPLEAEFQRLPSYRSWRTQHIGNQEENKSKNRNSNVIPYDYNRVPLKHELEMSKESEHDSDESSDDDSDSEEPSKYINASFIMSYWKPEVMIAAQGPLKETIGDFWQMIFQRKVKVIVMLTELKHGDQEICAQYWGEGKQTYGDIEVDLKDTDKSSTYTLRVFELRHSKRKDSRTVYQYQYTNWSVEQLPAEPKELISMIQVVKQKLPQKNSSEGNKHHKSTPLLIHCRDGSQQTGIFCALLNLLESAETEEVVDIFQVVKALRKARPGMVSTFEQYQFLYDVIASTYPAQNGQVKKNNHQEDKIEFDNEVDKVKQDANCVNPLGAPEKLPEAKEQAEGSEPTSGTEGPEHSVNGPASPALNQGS


Legend:
[1] = biological target: T1, CD45 D1-D4; experiment: Surface plasmon resonance (Biacore) affinity of Fabs; format: binding; settings: 25° C.; for Ka: association constant, CD45 D1-D4 50 nM to 0.05 nM
Procedure: Surface plasmon resonance (SPR) experiments were carried out at 25° C. on a Biacore 3000 system using CM5 sensor chips (GE Healthcare Bio-Sciences AB, Uppsala, Sweden) and HBS-EP running buffer (10 mM HEPES, 150 mM NaCl, EDTA 2 mM and 0.005% (v/v) P20, pH 7.4). 4133 rabbit Fab and 6294 mouse Fab were captured using polyclonal goat F(ab)2 fragment anti-rabbit F(ab)2, (Jackson Labs product code #111-006-047) and polyclonal goat F(ab)2 fragment anti-mouse F(ab)2, (Jackson Labs product code #115-006-072), respectively. Covalent immobilization of the capturing antibody was achieved by standard amine coupling chemistry to a level of 1000-3000 response units (RU).
CD45 D1-D4 was titrated over the captured purified antibody from 50 nM to 0.05 nM. Each assay cycle consisted of first capturing the antibody Fab fragment using a 1-min injection at a flow rate of 10 μl/min, followed by an association phase consisting of a 3-min injection of CD45 D1-D4 at a flow rate of 30 μl/min. The subsequent dissociation phase was monitored for at least 3 min. After each cycle, the capture surface was regenerated at a flow rate of 10 μl/min with a 1-min injection of 40 mM HCl followed by a 30-sec injection of 5 mM NaOH. A blank flow-cell was used for reference subtraction and buffer-blank injections were included to subtract instrument noise and drift. Kinetic parameters were determined using BIAevaluation software (version 4.1.1).

[2] = biological target: T2, human CD45 on cells (PBMC, whole blood …); experiment: cell-based or functional assay

Kd ([1]; SPR, read-out: affinity)	Kd ([1]; affinity constant, captured Fab, read-out: KD)	Ka ([1]; captured Fab)	Dissociation rate constant koff ([1]; captured Fab)	EC50 of reduction of lymphocytes in PBMC, 24 h (UCB Cone-802) [2]	EC50 of reduction of lymphocytes in PBMC, 24 h (UCB Cone-811) [2]	Molecule
61 nM	61 nM	570000 M⁻¹ s⁻¹	0.035 s⁻¹			4133 Fab: Fab fragment of rabbit anti-CD45 antibody 4133 (antibody) heavy: QEQLVESGGGLVQPEGSLTLTCTASGFSFSGNYYMCWVRQAPGKGLEWIGCLYTGSSGSTYYASWAKGRFTISKTSSTTVTLQMTSLTAADTATYFCARDLGYEIDGYGGLWGQGTLVTVSSGQPKAPSVFPLAPCCGDTPSSTVTLGCLVKGYLPEPVTVTWNSGTLTNGVRTFPSVRQSSGLYSLSSVVSVTSSSQPVTCNVAHPATNTKVDKTVAPSTCSKP light: AQVLTQTPSPVSAVVGGTVSISCQASQSVYNNNNLSWYQQKPGQPPKLLIYDASKLASGVPSRFKGSGSGTQFTLTISGVQCDDAATYYCLGGYYSSGWYFAFGGGTKVVVKRTPVAPTVLIFPPAADQVATGTVTIVCVANKYFPDVTVTWEVDGTTQTTGIENSKTPQNSADCTYNLSSTLTLTSTQYNSHKEYTCKVTQGTTSVVQSFNRGDC
0.085 nM		2.6e+06 M⁻¹ s⁻¹	0.00022 s⁻¹			6294 Fab: Fab fragment of mouse anti-CD45 antibody 6294 (antibody, V domains shown) VH: EVQLVESGAELARPGASVKMSCKASGYTFTSYTMHWVKQRPGQGLEWIGYINPSSGYTEYNQKFKDKTTLTADKSSSTAYLQLSSLTSEDSAVYYCARVGDGFYPSWLAYWGQGTLVTVSS VL: DIQMTQSPKFLLVSAGDRVTITCKASQSVRNDVAWYQQKPGQSPKLLIFYASKRYTGVPDRFTGSGYGTDFTFTISTVQAEDLAVYFCQQDYSSPTTFGGGTKLEIK
				0.09 nM	0.17 nM	4133-6294 IgG4P FALA Knob-in-Hole (bispecific antibody) heavy 1: QEQLVESGGGLVQPEGSLTLTCTASGFSFSGNYYMCWVRQAPGKGLEWIGCLYTGSSGSTYYASWAKGRFTISKTSSTTVTLQMTSLTAADTATYFCARDLGYEIDGYGGLWGQGTLVTVSSASTKGPSVFPLAPCSRSTSESTAALGCLVKDYFPEPVTVSWNSGALTSGVHTFPAVLQSSGLYSLSSVVTVPSSSLGTKTYTCNVDHKPSNTKVDKRVESKYGPPCPPCPSAPEAAGGPSVFLFPPKPKDTLMISRTPEVTCVVVDVSQEDPEVQFNWYVDGVEVHNAKTKPREEQFNSTYRVVSVLTVLHQDWLNGKEYKCKVSNKGLPSSIEKTISKAKTGQPREPQVYTLPPSQEEMTKNQVSLWCLVKGFYPSDIAVEWESNGQPENNYKTTPPVLDSDGSFFLYSRLTVDKSRWQEGNVFSCSVMHEALHNHYTQKSLSLSLGK heavy 2: EVQLVESGAELARPGASVKMSCKASGYTFTSYTMHWVKQRPGQGLEWIGYINPSSGYTEYNQKFKDKTTLTADKSSSTAYLQLSSLTSEDSAVYYCARVGDGFYPSWLAYWGQGTLVTVSSASTKGPSVFPLAPCSRSTSESTAALGCLVKDYFPEPVTVSWNSGALTSGVHTFPAVLQSSGLYSLSSVVTVPSSSLGTKTYTCNVDHKPSNTKVDKRVESKYGPPCPPCPAPEAAGGPSVFLFPPKPKDTLMISRTPEVTCVVVDVSQEDPEVQFNWYVDGVEVHNAKTKPREEQFNSTYRVVSVLTVLHQDWLNGKEYKCKVSNKGLPSSIEKTISKAKGQPREPQVYTLPPSQEEMTKNQVSLSCAVKGFYPSDIAVEWESNGQPENNYKTTPPVLDSDGSFFLVSRLTVDKSRWQEGNVFSCSVMHEALHNHYTQKSLSLSLGK light 1: AQVLTQTPSPVSAVVGGTVSISCQASQSVYNNNNLSWYQQKPGQPPKLLIYDASKLASGVPSRFKGSGSGTQFTLTISGVQCDDAATYYCLGGYYSSGWYFAFGGGTKVVVKRTVAAPSVFIFPPSDEQLKSGTASVVCLLNNFYPREAKVQWKVDNALQSGNSQESVTEQDSKDSTYSLSSTLTLSKADYEKHKVYACEVTHQGLSSPVTKSFNRGEC light 2: DIQMTQSPKFLLVSAGDRVTITCKASQSVRNDVAWYQQKPGQSPKLLIFYASKRYTGVPDRFTGSGYGTDFTFTISTVQAEDLAVYFCQQDYSSPTTFGGGTKLEIKRTVAAPSVFIFPPSDEQLKSGTASVVCLLNNFYPREAKVQWKVDNALQSGNSQESVTEQDSKDSTYSLSSTLTLSKADYEKHKVYACEVTHQGLSSPVTKSFNRGEC
